Measured values from patent publication US20240199761A1 (AstraZeneca / MedImmune, published 2024).
Where two headings read alike, the source gives them in different places. Values belong to the binder of their own block, whether it stands above or below them.

Legend:
[1] = target: T1, cynomolgus PAD2 haplotype N55D, T63A, N82S (9.4%) (cynomolgus, UniProt G7NUR0 1-665); experiment: SPR; antibody captured on C1-Protein G', PAD2 flowed over
T1 chain: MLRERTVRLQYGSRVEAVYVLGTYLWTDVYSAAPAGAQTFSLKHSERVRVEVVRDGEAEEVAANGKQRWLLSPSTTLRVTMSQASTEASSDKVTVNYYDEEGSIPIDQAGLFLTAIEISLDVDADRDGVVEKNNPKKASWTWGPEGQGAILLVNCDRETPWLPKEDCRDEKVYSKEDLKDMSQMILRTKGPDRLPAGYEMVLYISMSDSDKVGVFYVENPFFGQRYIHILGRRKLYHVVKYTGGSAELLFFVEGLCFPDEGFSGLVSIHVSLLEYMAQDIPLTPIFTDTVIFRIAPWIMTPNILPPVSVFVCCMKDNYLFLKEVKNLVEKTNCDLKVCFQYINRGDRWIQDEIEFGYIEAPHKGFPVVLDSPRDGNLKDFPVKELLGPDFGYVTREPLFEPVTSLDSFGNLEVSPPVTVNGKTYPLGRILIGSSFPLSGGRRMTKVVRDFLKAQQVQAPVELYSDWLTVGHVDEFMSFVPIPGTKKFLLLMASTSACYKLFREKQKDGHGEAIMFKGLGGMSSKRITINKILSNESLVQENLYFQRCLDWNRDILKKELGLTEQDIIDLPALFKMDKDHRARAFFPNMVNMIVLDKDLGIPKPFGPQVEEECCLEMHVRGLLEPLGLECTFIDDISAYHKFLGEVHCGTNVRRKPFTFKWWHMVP

[2] = target: T2, cynomolgus PAD2 haplotype N55D, N82S (37.5%) (cynomolgus, UniProt G7NUR0 1-665); experiment: as above
T2 chain: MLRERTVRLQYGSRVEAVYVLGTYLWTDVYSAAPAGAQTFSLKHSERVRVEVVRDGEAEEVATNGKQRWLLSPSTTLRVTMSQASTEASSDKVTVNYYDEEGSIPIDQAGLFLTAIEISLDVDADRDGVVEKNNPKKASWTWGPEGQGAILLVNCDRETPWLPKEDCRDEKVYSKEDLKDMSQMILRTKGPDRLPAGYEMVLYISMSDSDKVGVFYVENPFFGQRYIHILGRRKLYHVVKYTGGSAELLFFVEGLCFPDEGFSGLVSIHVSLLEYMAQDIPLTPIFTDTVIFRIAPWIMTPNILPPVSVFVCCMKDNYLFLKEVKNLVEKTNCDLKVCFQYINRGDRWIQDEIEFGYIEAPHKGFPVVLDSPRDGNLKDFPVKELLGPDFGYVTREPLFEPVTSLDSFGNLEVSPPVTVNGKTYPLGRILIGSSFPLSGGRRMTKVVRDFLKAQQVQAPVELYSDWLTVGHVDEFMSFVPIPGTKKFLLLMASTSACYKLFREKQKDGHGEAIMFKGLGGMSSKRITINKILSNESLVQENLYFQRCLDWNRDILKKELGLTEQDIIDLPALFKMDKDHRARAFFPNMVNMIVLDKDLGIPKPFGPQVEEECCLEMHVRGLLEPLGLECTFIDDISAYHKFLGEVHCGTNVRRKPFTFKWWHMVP

[3] = target: T3, huFcRn (human, UniProt P55899 24-297; P61769 21-119, limits assumed); experiment: huFcRn affinity chromatography, pH gradient elution
T3 construct: also called human neonatal Fc receptor

[4] = target: recombinant human PAD2 (human, UniProt Q9Y2J8 1-665); experiment: cell-based or functional assay
[5] = target: T4, recombinant mouse PAD2 (mouse, UniProt Q08642 1-673); experiment: ratio of SPR KDs, mouse PAD2 against human PAD2; antibody captured on C1-Protein G', PAD flowed over
T4 construct: Recombinant and tagged

[6] = target: T5, human PAD2, recombinant, tags at the N-terminus (human, UniProt Q9Y2J8 1-665, enzymatically biotinylated on an Avi-tag where captured on streptavidin); experiment: SPR; biotinylated antibody on C1-streptavidin, PAD2 flowed over
T5 construct: not shown: N-terminal tags incl; Avi-tag

[7] = target: T6, cynomolgus PAD2, recombinant, tags at the N-terminus (cynomolgus, UniProt G7NUR0 1-665, enzymatically biotinylated on an Avi-tag where captured on streptavidin); experiment: as above
T6 construct: also called Cyno PAD2; not shown: N-terminal tags incl; Avi-tag

[8] = target: T5, human PAD2, recombinant, tags at the …; experiment: SPR; antibody on C1-Protein G', PAD2 flowed over
[9] = target: T6, cynomolgus PAD2, recombinant, tags at …; experiment: SPR; antibody on C1-Protein G', PAD2 flowed over
[10] = target: T7, mouse PAD2, recombinant, tags at the N-terminus (mouse, UniProt Q08642 1-673, enzymatically biotinylated on an Avi-tag where captured on streptavidin); experiment: SPR; antibody on C1-Protein G', PAD2 flowed over
T7 construct: not shown: N-terminal tags incl; Avi-tag

[11] = target: T5, human PAD2, recombinant, tags at the …; experiment: SPR; antibody on C1-Protein G', PAD2 flowed over; remark: listed apart in the source
[12] = target: T6, cynomolgus PAD2, recombinant, tags at …; experiment: SPR; antibody on C1-Protein G', PAD2 flowed over; remark: listed apart in the source
[13] = target: T7, mouse PAD2, recombinant, tags at the …; experiment: SPR; antibody on C1-Protein G', PAD2 flowed over; remark: listed apart in the source
[14] = target: T5, human PAD2, recombinant, tags at the …; experiment: SPR; biotinylated antibody on C1-streptavidin, PAD2 flowed over; remark: listed apart in the source
[15] = target: T6, cynomolgus PAD2, recombinant, tags at …; experiment: as above; remark: listed apart in the source
[16] = target: T8, Human PAD1 (Homo sapiens, UniProt Q9ULC6); experiment: specificity ELISA: biotinylated PAD on a streptavidin plate, detection with anti-human IgG Fc HRP, Binding (RFU); antibody concentration not given
T8 construct: biotinylated, captured on a streptavidin plate; also called biotinylated PAD1
T8 sequence (single chain, looked up): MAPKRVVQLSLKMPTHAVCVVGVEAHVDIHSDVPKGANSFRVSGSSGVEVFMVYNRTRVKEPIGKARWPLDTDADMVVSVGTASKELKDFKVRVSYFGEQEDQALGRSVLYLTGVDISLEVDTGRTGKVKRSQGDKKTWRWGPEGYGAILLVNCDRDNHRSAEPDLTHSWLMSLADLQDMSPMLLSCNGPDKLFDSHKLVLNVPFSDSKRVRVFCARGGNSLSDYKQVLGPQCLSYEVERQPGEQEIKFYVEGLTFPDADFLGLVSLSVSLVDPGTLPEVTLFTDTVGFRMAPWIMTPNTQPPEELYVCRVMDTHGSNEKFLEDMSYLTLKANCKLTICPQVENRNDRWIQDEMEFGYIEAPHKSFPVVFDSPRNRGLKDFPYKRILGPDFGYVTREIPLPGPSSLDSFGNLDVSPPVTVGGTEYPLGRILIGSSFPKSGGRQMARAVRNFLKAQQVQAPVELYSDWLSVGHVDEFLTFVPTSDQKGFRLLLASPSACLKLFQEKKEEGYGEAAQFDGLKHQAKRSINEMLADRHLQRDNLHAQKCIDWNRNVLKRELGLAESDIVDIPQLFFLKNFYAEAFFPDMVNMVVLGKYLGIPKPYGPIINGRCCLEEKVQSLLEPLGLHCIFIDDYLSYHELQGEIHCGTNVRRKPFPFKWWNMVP

[17] = target: T9, Human PAD3 (Homo sapiens, UniProt Q9ULW8); experiment: as above
T9 construct: biotinylated, captured on a streptavidin plate; also called biotinylated PAD3
T9 sequence (single chain, looked up): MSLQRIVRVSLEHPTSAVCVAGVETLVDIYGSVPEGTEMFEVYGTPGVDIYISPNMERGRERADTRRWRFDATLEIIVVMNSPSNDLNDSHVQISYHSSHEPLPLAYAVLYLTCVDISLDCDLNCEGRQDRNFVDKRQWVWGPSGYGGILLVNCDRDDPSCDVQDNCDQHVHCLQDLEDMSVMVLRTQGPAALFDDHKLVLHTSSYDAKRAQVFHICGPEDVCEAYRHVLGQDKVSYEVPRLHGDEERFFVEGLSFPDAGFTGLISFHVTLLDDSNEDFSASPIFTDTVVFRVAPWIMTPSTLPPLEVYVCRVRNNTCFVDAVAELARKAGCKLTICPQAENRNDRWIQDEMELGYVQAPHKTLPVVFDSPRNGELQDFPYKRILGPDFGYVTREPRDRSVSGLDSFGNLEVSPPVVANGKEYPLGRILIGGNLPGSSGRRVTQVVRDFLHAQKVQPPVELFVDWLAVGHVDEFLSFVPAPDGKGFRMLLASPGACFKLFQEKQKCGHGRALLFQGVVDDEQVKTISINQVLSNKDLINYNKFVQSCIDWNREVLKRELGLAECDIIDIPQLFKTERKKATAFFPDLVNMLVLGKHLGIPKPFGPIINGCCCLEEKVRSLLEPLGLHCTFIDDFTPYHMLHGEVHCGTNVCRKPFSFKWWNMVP

B1: Clone 08 (Bis3, TM; Fab anti-PAD2, scFv anti-PAD4) (bispecific antibody, human IgG1, lambda)
heavy: not shown
light: SYVLTQPPSVSVSPGQTASITCSGDKVGDKYVSWYQQKPGQSPVLVIYQDSQRPSGIPERFSGSNSGNTATLTISGTQAMDEADYYCQTWAPDVLLFGSGTKVTVLGQPKAAPSVTLFPPSSEELQANKATLVCLISDFYPGAVTVAWKADSSPVKAGVETTTPSKQSNNKYAASSYLSLTPEQWKSHRSYSCQVTHEGSTVEKTVAPTECS
notes: Bivalent bispecific IgG-HC-scFv; also called Clone 8*; Clone 8^#
Kd [1]: 43.4 pM | koff [1]: 6.76e-05 s⁻¹ | kon [1]: 1.58e+06 M⁻¹ s⁻¹ | Kd [2]: 6.4 pM | koff [2]: 2.65e-05 s⁻¹ | kon [2]: 4.23e+06 M⁻¹ s⁻¹ | HPLC retention [3]: 17 min | Relative retention [3]: -0.207 | Potency (IC50), Histone-H3 assay [4]: 94 pM | fold difference in KD, mouse/human [5]: 1.1 fold

B4: Clone 07 (Bis3, TM; Fab anti-PAD4, scFv anti-PAD2) (bispecific antibody, human IgG1, lambda)
heavy: not shown
light: QSALTQPRSVSGSPGQSVTISCTGTSGDVGRYSHVSWYQQHPGKAPKLIIYNVYERPSGVPDRFSGSKSGNTASLTISGLQAEDEADYYCSSHSRSSTPVLFGGGTKLTVLGQPKAAPSVTLFPPSSEELQANKATLVCLISDFYPGAVTVAWKADSSPVKAGVETTTPSKQSNNKYAASSYLSLTPEQWKSHRSYSCQVTHEGSTVEKTVAPTECS
notes: Bivalent bispecific IgG-HC-scFv; also called Clone 7*; PAD240007
HPLC retention [3]: 17.8 min | Relative retention [3]: -0.081 | Potency (IC50), Histone-H3 assay [4]: 238 pM | fold difference in KD, mouse/human [5]: 1 fold

The remaining lines, values ahead:

Kd [6]: 7.51 pM | Kd [7]: 12.1 pM | Kd [8]: 6.65 pM | Kd [9]: 16.7 pM | Kd [10]: 7.19 pM | Kd [11]: 6.65 pM | koff [11]: 2.97e-05 s⁻¹ | kon [11]: 4.48e+06 M⁻¹ s⁻¹ | Kd [12]: 16.7 pM | koff [12]: 4.52e-05 s⁻¹ | kon [12]: 2.74e+06 M⁻¹ s⁻¹ | Kd [13]: 7.19 pM | koff [13]: 3.31e-05 s⁻¹ | kon [13]: 4.65e+06 M⁻¹ s⁻¹ | Kd [14]: 7.51 pM | koff [14]: 4.74e-05 s⁻¹ | kon [14]: 5.88e+06 M⁻¹ s⁻¹ | Kd [15]: 12.1 pM | koff [15]: 0.0001 s⁻¹ | kon [15]: 9.48e+06 M⁻¹ s⁻¹
B2: Clone 08, Bis3 anti-PAD2 Fab / anti-PAD4 scFv, Fc TM (bispecific antibody, human IgG1, lambda)
heavy: not shown
light: SYVLTQPPSVSVSPGQTASITCSGDKVGDKYVSWYQQKPGQSPVLVIYQDSQRPSGIPERFSGSNSGNTATLTISGTQAMDEADYYCQTWAPDVLLFGSGTKVTVLGQPKAAPSVTLFPPSSEELQANKATLVCLISDFYPGAVTVAWKADSSPVKAGVETTTPSKQSNNKYAASSYLSLTPEQWKSHRSYSCQVTHEGSTVEKTVAPTECS
notes: Bivalent for PAD2 and for PAD4; In the rows marked ^# the antibody was chemically biotinylated; also called Clone 8*; Clone 8^#

binding result [16]: no binding | binding result [17]: no binding
B3: Clone 12 (Bis3, FQQ-YTE; PAD2 Fab, PAD4 scFv) (bispecific antibody, human IgG1, lambda)
heavy: not shown
light: SYVLTQPPSVSVSPGQTASITCSGDKVGDKYVSWYQQKPGQSPVLVIYQDSQRPSGIPERFSGSNSGNTATLTISGTQAMDEADYYCQTWAPDVLLFGSGTKVTVLGQPKAAPSVTLFPPSSEELQANKATLVCLISDFYPGAVTVAWKADSSPVKAGVETTTPSKQSNNKYAASSYLSLTPEQWKSHRSYSCQVTHEGSTVEKTVAPTECS
notes: also called PAD240012
